For this assay, the target named is human TPOR (thrombopoietin receptor, c-Mpl) expressed on BaF3/c-Mpl cells (human) (UniProt P40238). Put plainly: cell-based or functional assay.

As for Romiplostim (Nplate®) (Fc fusion), the EC50 (ng/ml), growth of BaF3/c-Mpl cells by CCK-8 assay; Nplate® came out at 8.78 ng/mL.

The record behind these values is patent US20240391977A1.
